# Data: article PMC11375011, “Inducible auto-phosphorylation regulates a widespread family of nucleotidyltransferase toxins” (Nature Communications, 2024)
# Entries after “also recorded” stand apart in the source; their conditions may differ.
# Target: MenA1
# Conditions: sites T39
substance,measurement,value
MenT1,other: observed/calculated Stokes radius ratio against the heterotrimer,weaker; reference 0.97; also recorded: same; reference 0.97
